Results taken from patent US20250144178A1 (KANAPH THERAPEUTICS, published 2025).

T1: human FAP (fibroblast activation protein alpha) overexpressed in HEK293 cells (HEK293-hFAP) (human, UniProt Q12884 1-760)
T1 construct: whole, on cells; also called human FAP-expressing cell line
T1 sequence (looked up): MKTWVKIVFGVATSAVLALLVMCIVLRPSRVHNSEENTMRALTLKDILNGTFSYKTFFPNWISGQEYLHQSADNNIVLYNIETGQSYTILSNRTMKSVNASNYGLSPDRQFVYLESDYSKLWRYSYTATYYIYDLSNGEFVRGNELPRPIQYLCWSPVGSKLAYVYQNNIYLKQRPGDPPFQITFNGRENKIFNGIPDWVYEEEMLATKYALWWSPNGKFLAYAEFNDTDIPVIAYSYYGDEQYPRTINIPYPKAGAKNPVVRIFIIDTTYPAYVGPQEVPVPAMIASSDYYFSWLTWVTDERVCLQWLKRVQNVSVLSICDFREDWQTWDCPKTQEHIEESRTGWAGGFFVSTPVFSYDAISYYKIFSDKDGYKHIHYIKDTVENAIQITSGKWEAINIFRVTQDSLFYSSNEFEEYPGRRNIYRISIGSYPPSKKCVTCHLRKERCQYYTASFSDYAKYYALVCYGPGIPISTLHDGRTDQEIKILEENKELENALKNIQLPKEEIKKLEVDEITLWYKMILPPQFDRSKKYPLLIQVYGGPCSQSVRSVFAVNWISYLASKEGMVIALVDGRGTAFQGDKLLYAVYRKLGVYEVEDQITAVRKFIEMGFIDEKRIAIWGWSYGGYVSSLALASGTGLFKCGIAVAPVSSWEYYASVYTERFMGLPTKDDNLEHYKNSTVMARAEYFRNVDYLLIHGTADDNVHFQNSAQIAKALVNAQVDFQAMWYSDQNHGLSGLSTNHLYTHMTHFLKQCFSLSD

T2: recombinant human FAP (human, UniProt Q12884 26-760)
T2 construct: Soluble analyte in SPR; The description calls FAP a homodimer; also called rhFAP
T2 sequence (looked up): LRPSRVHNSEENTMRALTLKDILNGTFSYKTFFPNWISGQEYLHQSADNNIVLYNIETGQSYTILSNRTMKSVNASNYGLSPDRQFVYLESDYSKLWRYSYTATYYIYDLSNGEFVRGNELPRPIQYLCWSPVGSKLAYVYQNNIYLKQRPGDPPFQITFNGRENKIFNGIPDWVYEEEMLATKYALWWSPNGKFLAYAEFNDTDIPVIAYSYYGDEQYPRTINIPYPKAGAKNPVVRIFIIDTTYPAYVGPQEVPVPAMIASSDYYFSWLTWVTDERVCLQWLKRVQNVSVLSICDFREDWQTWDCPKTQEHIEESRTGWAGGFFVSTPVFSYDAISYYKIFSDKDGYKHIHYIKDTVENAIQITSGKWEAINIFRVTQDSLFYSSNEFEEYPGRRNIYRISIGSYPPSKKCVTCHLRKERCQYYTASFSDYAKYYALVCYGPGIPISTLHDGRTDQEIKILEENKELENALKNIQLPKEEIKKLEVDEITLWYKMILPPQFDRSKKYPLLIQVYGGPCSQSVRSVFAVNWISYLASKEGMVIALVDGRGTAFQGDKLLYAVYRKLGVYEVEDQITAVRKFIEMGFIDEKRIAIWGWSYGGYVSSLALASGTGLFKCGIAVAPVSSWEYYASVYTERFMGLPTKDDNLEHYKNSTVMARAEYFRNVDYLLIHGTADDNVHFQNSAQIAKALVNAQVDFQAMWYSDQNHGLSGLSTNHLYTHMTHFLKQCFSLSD

B1: T1.02 (anti-hu FAP/hu IL-12 mut1, hu IgG1 DANG) (bispecific antibody)
heavy: QVQLVQSGAEVKKPGASVKVSCKTSRYTFTEYTIHWVRQAPGQRLEWIGGINPNNGIPNYNQKFKGRVTITVDTSASTAYMELSSLRSEDTAVYYCARRRIAYGYDEGHAMDYWGQGTLVTVSSASTKGPSVFPLAPSSKSTSGGTAALGCLVKDYFPEPVTVSWNSGALTSGVHTFPAVLQSSGLYSLSSVVTVPSSSLGTQTYICNVNHKPSNTKVDKKVEPKSCDKTHTCPPCPAPELLGGPSVFLFPPKPKDTLMISRTPEVTCVVVAVSHEDPEVKFNWYVDGVEVHNAKTKPREEQYGSTYRVVSVLTVLHQDWLNGKEYKCKVSNKALPAPIEKTISKAKGQPREPQVYTLPPSRDELTKNQVSLWCLVKGFYPSDIAVEWESNGQPENNYKTTPPVLDSDGSFFLYSKLTVDKSRWQQGNVFSCSVMHEALHNHYTQKSLSLSPGK
light: not shown
chain: not shown
notes: Knob-in-hole heterodimer
B2: T1.12 (anti-hu FAP/null, hu IgG1 DANG) (antibody)
heavy: B1 heavy
light: not shown
chain: not shown
notes: One-armed anti-FAP antibody without IL-12; used as the control for IL-12 activity
B3: T1.03 (anti-hu FAP/hu IL-12 mut2, hu IgG1 DANG) (bispecific antibody)
heavy: B1 heavy
light: not shown
chain: not shown
notes: Knob-in-hole heterodimer
B4: T1.01 (anti-hu FAP/hu IL-12, hu IgG1 DANG) (bispecific antibody)
heavy: B1 heavy
light: not shown
chain: not shown
notes: Knob-in-hole heterodimer: one anti-FAP Fab arm and one single-chain human IL-12 (p40-linker-p35) Fc arm

Tests used:
[1] = biological target: T3, IL-12 receptor beta 1-biotin (recombinant human IL-12 receptor protein) (human, UniProt P42701 24-545, limits assumed, biotin (site not stated)); assay: ELISA, fusion protein coated in serial dilution, 1 nM IL-12Rβ1-biotin, streptavidin-HRP, OD at 450 nm
T3 construct: Bought reagent; also called IL-12Rβ1-Biotin
Procedure: (§1) (ii) The wells were washed with a wash solution, and then blocking was performed for 1 hour with 1% BSA (Bovine serum albumin, Sigma) solution.
(§2) (iii) The wells were washed with a wash solution, and then treated with 1 nM IL-12 receptor beta 1-biotin (IL-12Rβ1-Biotin; Acrobiosystems, Newark, USA) for 2 hours.
(§3) (iv) The wells were washed with a wash solution, and then treated with streptavidin-HRP for 20 minutes.

[2] = biological target: IL-12 receptor of human T cells (human, UniProt P42701 24-662; Q99665 24-862); assay: cell-based or functional assay
[3] = biological target: T1, human FAP (fibroblast activation …); assay: flow cytometry on HEK293-hFAP cells, 1 µg protein per 1x10^5 cells, anti-human IgG detection
Procedure: (§4) Specifically, the cell line was prepared by suspending in a FACS buffer solution at 1×10⁵ cells/100 μl, and treated with 1 μg each of T1.12, T1.01, T1.02 and T1.03. The cells were washed twice with a FACS buffer solution. The cells were stained with an anti-human IgG antibody (Biolegend). The negative control was stained only with an anti-human IgG antibody (Biolegend). The expression rates of the stained cells were measured using BD LSR and analyzed using a FlowJo software.

[4] = biological target: T2, recombinant human FAP; assay: SPR, fusion protein captured by anti-human IgG (Fc) on a CM5 chip, hFAP his as analyte 0.78125-50 nM, 1:1 binding model
[5] = biological target: T1, human FAP (fibroblast activation …); assay: flow cytometry on HEK293-hFAP cells, detection with anti-human IgG antibody
Procedure: as §4

[6] = biological target: T3, IL-12 receptor beta 1-biotin …; assay: ELISA, protein coated in serial dilution, 1 nM IL-12Rβ1-biotin, streptavidin-HRP, OD at 450 nm
Procedure: as §1, §2, §3

[7] = biological target: T2, recombinant human FAP; assay: SPR, fusion protein captured by anti-human IgG (Fc) on a CM5 chip, human FAP as analyte 1.5625-200 nM, 1:1 binding model
Procedure: Specifically, the surface of the CM5 chip was activated with a 1:1 mixture of […] NHS (N-hydroxysuccinimide) and […] EDC (1-Ethyl-3-(3-dimethylaminopropyl) carbodiimide), and 25 μg/ml of anti-human IgG (Fc) antibody was immobilized for 400 seconds at a rate of 10 μl/min. The remaining active ester groups were blocked with 1 M ethanolamine. T1.01, T1.02 and T1.03 were diluted to 2 μg/ml and reacted on the CM5 chip immobilized with the anti-human IgG (Fc) antibody. The recombinant human FAP was diluted to 200 nM in 1×HBS-EP+buffer solution and diluted by serial dilution. The diluted recombinant human FAP was reacted at a rate of 30 μl/min. The association and dissociation times were 180 seconds and 400 seconds, respectively. After the dissociation, stabilization was performed for 60 seconds, and then a regeneration was performed for 30 seconds with a 10 mM glycine pH 1.5 solution at a rate of 30 μl/min.

Chain of IL-12 receptor of human T cells (Q99665 24-862, chain 2 of 2, other chains not shown): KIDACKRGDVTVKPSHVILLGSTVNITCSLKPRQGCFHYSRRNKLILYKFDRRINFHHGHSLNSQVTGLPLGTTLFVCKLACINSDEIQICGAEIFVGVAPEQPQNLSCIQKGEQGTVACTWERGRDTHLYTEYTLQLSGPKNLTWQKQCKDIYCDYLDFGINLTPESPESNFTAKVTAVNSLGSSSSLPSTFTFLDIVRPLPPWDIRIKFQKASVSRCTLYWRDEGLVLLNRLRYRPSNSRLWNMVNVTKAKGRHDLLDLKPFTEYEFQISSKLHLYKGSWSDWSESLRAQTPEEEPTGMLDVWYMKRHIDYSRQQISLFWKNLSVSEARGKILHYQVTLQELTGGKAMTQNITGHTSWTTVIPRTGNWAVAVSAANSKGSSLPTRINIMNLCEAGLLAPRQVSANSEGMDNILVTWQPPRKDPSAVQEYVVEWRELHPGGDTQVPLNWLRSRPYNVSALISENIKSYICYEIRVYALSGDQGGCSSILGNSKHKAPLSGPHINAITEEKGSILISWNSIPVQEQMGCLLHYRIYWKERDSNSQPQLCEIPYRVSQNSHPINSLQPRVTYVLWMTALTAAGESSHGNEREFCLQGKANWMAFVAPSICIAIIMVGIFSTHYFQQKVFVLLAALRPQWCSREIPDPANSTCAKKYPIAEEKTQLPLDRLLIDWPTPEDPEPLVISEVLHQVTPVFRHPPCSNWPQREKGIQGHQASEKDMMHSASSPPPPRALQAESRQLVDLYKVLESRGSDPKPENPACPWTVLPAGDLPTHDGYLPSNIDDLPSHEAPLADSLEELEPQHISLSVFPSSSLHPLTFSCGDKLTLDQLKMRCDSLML

Row | EC50 (read off the curve) [1] [nM] | fold change of the p-STAT4 EC50 with low molecular weight heparin against without, activated human T cells [2] [times] | half maximal effective concentration (EC50) of p-STAT4 (Tyr693), AlphaLISA, activated human T cells [2] [nM] | percent of cells bound [3] [%] | Kd [4] [nM] | koff [4] [s⁻¹] | kon [4] [M⁻¹ s⁻¹] | percent of cells in the positive gate (hFAP-PE) [5] [%] | binding result [6] | Kd [7] [nM] | koff [7] [s⁻¹] | kon [7] [M⁻¹ s⁻¹] | Binder
1 | ~20 | 5.5 | 0.0565 | ≥ 99 | 0.595 | 0.000139 | 235000 | 99.8 |  |  |  |  | B1
2 |  |  |  | ≥ 99 |  |  |  | 99.3 | no binding (tested: 10^5 pM) |  |  |  | B2
3 | ~20 | 4 | 0.147 | ≥ 99 |  |  |  | 99.3 |  | 1.3 | 0.000124 | 94900 | B3
4 | ~20 | 9.4 | 0.0145 | ≥ 99 | 0.588 | 0.000152 | 258000 | 99.8 |  |  |  |  | B4
